Test results as given in patent US20170275344A1, “POLYPEPTIDES AND USES THEREOF AS A DRUG FOR TREATMENT OF AUTOIMMUNE DISORDERS” (Compugen Ltd., priority 2014, published 2017).

Tested on: SJL mice
Experiment: PLP139-151/CFA R-EAE with Treg inactivation by anti-CD25
Type: in vivo, mouse
Procedure: In two studies, EAE was induced in SJL mice via PLP139-151/CFA priming as described under Methods, below. The mice were divided into 4 and 8 groups in Study I and Study II, respectively groups (n=10/treatment group). In both studies, groups 1-4 the mice received two injections separated by one day, of either Control Ab or anti-CD25 (clone 7D4 at 500 μg/injection i.p. (BioXCell Cat# BE0013; West Lebanon, N.H.)) starting at the onset of disease remission (Day +19 and 21 in Study I or Day +20 and 22 in Study II), followed by treatment with either mIgG2a Control Ig or C1ORF32 ECD-Fc (100 ug/dose; 3×/wk; 2 wks) beginning on the day of the second treatment with anti CD25 (Day 21 in study I and day 22 in study II).
To study the importance of Treg function for maintenance of tolerance by C1ORF32 ECD-Fc a second set of mice was set in study II, groups 5-8, in which mice were treated with Control Ig or C1ORF32 ECD-Fc (SEQ ID NO:42) first in a similar regimen as groups 1-4 (beginning on Day +22), and then two weeks following the last C1ORF32 ECD-Fc (SEQ ID NO:42) treatment, on days 46 and 48, mice received either Control Ab or anti-CD25 (500 μg/injection) to inactivate the Treg cells. The mice were followed for the level of disease severity.
Study I Treatment Groups (n=10 Mice Per Group) 1. Control Ab (Day +19 and 21) plus Control Ig (100 ug/dose; 3×/wk; 2 wks; beginning on Day +21) 2. Anti-CD25 Ab (Day +19 and 21) plus Control Ig (100 ug/dose; 3×/wk; 2 wks; beginning on Day +21) 3. Control Ab (Day +19 and 21) plus C1ORF ECD-Fc (SEQ ID NO:42) (100 ug/dose; 3×/wk; 2 wks; beginning on Day +21) 4. Anti-CD25 Ab (Day +19 and 21) plus C1ORF ECD-Fc (SEQ ID NO:42) (100 ug/dose; 3×/wk; 2 wks; beginning on Day +21) Study II Treatment Groups (n=10 Mice Per Group) 1. Control Ab (Day +20 and 22) plus Control Ig (100 ug/dose; 3×/wk; 2 wks; beginning on Day +22) 2. Anti-CD25 Ab (Day +20 and 22) plus Control Ig (100 ug/dose; 3×/wk; 2 wks; beginning on Day +22) 3. Control Ab (Day +20 and 22) plus C1ORF32 ECD-Fc (SEQ ID NO:42) (100 ug/dose; 3×/wk; 2 wks; beginning on Day +22) 4. Anti-CD25 Ab (Day +20 and 22) plus C1ORF32 ECD-Fc (SEQ ID NO:42) (100 ug/dose; 3×/wk; 2 wks; beginning on Day +22) 5. Control Ig (100 ug/dose; 3×/wk; 2 wks; beginning on Day +22) plus Control Ab (Day +46 and 48) 6. […]
SJL mice were primed with 50 μg PLP139-151/CFA to induce R-EAE, and followed for disease through the acute phase of disease and into disease remission. […] Clinical results are expressed as the mean clinical score.
Mice were followed for disease and scored on a 0-5 scale per standard lab protocol as follows: 0, no abnormality; 1, limp tail; 2, limp tail and hind limb weakness; 3, hind limb paralysis; 4, hind limb paralysis and forelimb weakness; and 5, moribund.

B1: C1ORF32 ECD-Fc (SEQ ID NO:42): fusion protein of human C1ORF32 ECD fused to mouse immunoglobulin Fc (human-mouse fusion protein) (protein)
chain: LQVTVPDKKKVAMLFQPTVLRCHFSTSSHQPAVVQWKFKSYCQDRMGESLGMSSTRAQSLSKRNLEWDPYLDCLDSRRTVRVVASKQGSTVTLGDFYRGREITIVHDADLQIGKLMWGDSGLYYCIITTPDDLEGKNEDSVELLVLGRTGLLADLLPSFAVEIMGSENLYFQGSGEPRGPTIKPCPPCKCPAPNLLGGPSVFIFPPKIKDVLMISLSPIVTCVVVDVSEDDPDVQISWFVNNVEVHTAQTQTHREDYNSTLRVVSALPIQHQDWMSGKEFKCKVNNKDLPAPIERTISKPKGSVRAPQVYVLPPPEEEMTKKQVTLTCMVTDFMPEDIYVEWTNNGKTELNYKNTEPVLDSDGSYFMYSKLRVEKKNWVERNSYSCSVVHEGLHNHHTTKSFSRTPGK
modifications: Fusion protein human C1ORF32-ECD fused to mouse IgG2a Fc
relapsing EAE disease (Study I, Control Ab, 100 ug/dose 3x/wk 2 wks from Day +21): abrogated | disease severity (Study I, treatment starting after anti-CD25 (Day +19 and 21), vs anti CD25 + control Ig): significant decrease in disease severity | disease symptoms (Study II, anti-CD25 on days 20 and 22, before treatment from day 22): completely inhibited diseases symptoms | disease course after late Treg inactivation (Study II, anti-CD25 on days 46 and 48, 2 weeks after completion of treatment): immediate relapse which was alleviated as the effect of anti-CD25 dropped off
